In the nanobody polyreactivity screen of Harvey et al. (2022):

assay: yeast display, Sf9 membrane polyspecificity reagent, FACS + sequencing; frameworks hold sequencing errors
Summary of the method: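 Nanobodies came from a synthetic yeast display library in Saccharomyces cerevisiae BJ5465, induced with galactose for 36–48 hours and stained for 1 hour at 4 °C with 10% biotinylated, detergent-solubilized Sf9 membrane reagent. Cells were enriched on streptavidin microbeads and then FACS-sorted, with low and high (top ~1%) gates set on anti-HA fluorescence for expression and streptavidin fluorescence for reagent binding. Each polyreactivity label reflects the gate a clone came from. Genes were amplified by colony PCR, sequenced by MiSeq 2 × 250 and filtered by CDR length.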

Sequence | polyreactivity (PSR sort gate)
QVQLVESGGGLVQAGGSLRLSCAASGSTFRYNAMGWYRQAPGKERELVAAITSTGDSTYYADSVKGRFTISRDNAKNTVYLQMNSLKPEVTAVYYCAARSYASPGWRYEFWGQGTQVTVSS | low polyreactivity
QVQLVESGGGLVQAGGSLRLSCAASGSTFRYNAMGWYRQAPGKERELVASISGSGGGTYYADSVKGRFTISRDNAKNTVYLQMNSLKPEDTAVYYCAADAGAFYFGGDYWGQGTQVTVSS | low polyreactivity
QVQLVESGGGLVQAGGSLRLSCAASGSTFRYNTMGWYRQAPGKERELVAAISTSGGTTYYADSVKGRFTISRDNAKNTVYLQMNSLKPEDTAVYYCAARPFPRRWYGAEDYYWGQGTQVTVSS | high polyreactivity
QVQLVESGGGLVQAGGSLRLSCAASGSTFRYYAMGRYRQAPGKERELVAVISTSGNTYYADSVKGRFTISRDNAKNTVYLQMNSLKPEDTAGYYCAAGGVGGQISQEYDYWGQGTQVTVSS | low polyreactivity
QVQLVESGGGLVQAGGSLRLSCAASGSTFRYYAMGWYREAPGKEREFVAAISLRAGSTYYADSVKGRFTISRDNAKNTVYLQMNSLKPEDTAVYYCAARRASYGTRRYDYWGQGTQVTVSS | high polyreactivity
QVQLVESGGGLVQAGGSLRLSCAASGSTFRYYAMGWYRQAPGKERELVAAINYGGGRTYYADSVKGRFTISRDNAKNTVYLQMNSLKPEDTAVYYCATGYYYYRFYTYGYWGQGTQVTVSS | high polyreactivity
QVQLVESGGGLVQAGGSLRLSCAASGSTFRYYAMGWYRQAPGKERELVAAISTGGTTYYADSVKGRFTISRENAKNTVYLQMNSLKPEDTAVYYCNTVRLFDYGYWGQGTQVTVSS | low polyreactivity
QVQLVESGGGLVQAGGSLRLSCAASGSTFRYYAMGWYRQAPGKERELVAAITRSGGSTSYADSVKGRFTISRDNAKNTVYLQMNSLKPEDTAVYYCAARFYRPYYARQGYNYWGQGTQVTVSS | high polyreactivity
QVQLVESGGGLVQAGGSLRLSCAASGSTFRYYAMGWYRQAPGKERELVAGISSSGGSTYYADSVKGRFTISRDNAKNTVYLQMNSLNPEDTAVYYCIAARGTSRSWAVFADYDYWGQGTQVTVSS | high polyreactivity
QVQLVESGGGLVQAGGSLRLSCAASGSTFRYYAMGWYRQAPGKERELVASISSGGSTNYADSVKGRFTISRDNAKNTVYLQMNSLKPGDTAVYYCNADSWTVNRRYYYYRYEYWGQGTQVTVSS | low polyreactivity
QVQLVESGGGLVQAGGSLRLSCAASGSTFRYYAMGWYRQAPGKERELVATITGSGGSTYYADSVKGRFTISRDNAKNTVYLQMNSLKPEDTAVYYCAAYYSGGYDYWGQGTQVTVSS | high polyreactivity
QVQLVESGGGLVQAGGSLRLSCAASGSTFRYYGMGWYRQAPGKERELVAAITWSSGSTFYADSVKGRFTISRDNAKNTVYLQMNSLKPEDTAVYYCAKTWWTRLKTKSLHFGYWGQGTQVTVSS | high polyreactivity
QVQLVESGGGLVQAGGSLRLSCAASGSTFRYYTMGWYRQAPGKERELVAAITRRSASTYYADSVKGRFTISRDNAKNTVYLQMNSLKPEDTAVYYCAVRTNGPFEYWGQGTQVTVSS | high polyreactivity
QVQLVESGGGLVQAGGSLRLSCAASGSTFRYYTMGWYRQAPGKERELVAAITWSGGSTYYADSVKGRFTISRDNAKNTVNLQMNSLKPEDTEVYYCNKEDVGSSESDYWGQGTQVTVSS | high polyreactivity
QVQLVESGGGLVQAGGSLRLSCAASGSTFRYYTMGWYRQAPGKERELVAAITWSGGSTYYADSVKGRFTISRDNAKNTVYLQMNSLKPEDTAVYYCNARSLQWTPRAYYYWGQGTQVTVSS | high polyreactivity
QVQLVESGGGLVQAGGSLRLSCAASGSTFRYYTMGWYRQAPGKERELVARISWSGGSTYYADSVKGRFTISRDNAKNTVYLQMNSLKPEDTAVYYCNAVLFYFQTRDYWGQGTQVTVSS | high polyreactivity

Sequence | polyreactivity (PSR sort gate)
QVQLVESGGGLVQAGGSLRLSCAASGSTFSANAMGWYRQAPGKERELLAAISSGDITYYADSVKGRFTISRDNAKNTVYLQMNSLKPEDTAVYYCAKYTRPTGNVDDGFEYWGQGTQVTVSS | low polyreactivity
QVQLVESGGGLVQAGGSLRLSCAASGSTFSANAMGWYRQAPGKERELVAAISRRGGSTNYADSVKGRFTISRDNAKNTVYLQMNSLKPEDTAVYYCAALYVPRSPFSYDYWGQGTQVTVSS | high polyreactivity
QVQLVESGGGLVQAGGSLRLSCAASGSTFSANAMGWYRQAPGKERELVAAITYRGGNTYYADSVKGRFTISRDNAKNTVYLQMNSLKPEDTAVYYCNRDLRVRYRRLKYGYWGQGTQVTVSS | low polyreactivity
QVQLVESGGGLVQAGGSLRLSCAASGSTFSANAMGWYRQAPGKERELVAGISRSGGRTYYADSVKGRFTISRDNEMNTVYLQMNSLKPEDTAVYYCNARRRGAGGYDYWGQGTQVTVSS | high polyreactivity
QVQLVESGGGLVQAGGSLRLSCAASGSTFSAYAMGWYRQAPGKERELVATITSDGSTNYADSVKGRFTISRDNAKNTVYLQMNSLKPEDTAVYYCAAKRQYKRSRMYYWGQGTQVTVSS | high polyreactivity
QVQLVESGGGLVQAGGSLRLSCAASGSTFSDNAMGWYRQAPGKERELVATINASGGSTYYADSVKGRFTITRDNAKNTVYLQMNSLKPEDTAVYYCAADVYTRFWRVYRFDYWGQGTQVTVSS | low polyreactivity
QVQLVESGGGLVQAGGSLRLSCAASGSTFSDNDMGWYRQAPGKERELVATIDDDGSTYYADSVKGRFTISRDNAKNTVYLQMNSLKPEDTAVYYCAAEWYGGYPFGYWGQGTQVTVSS | low polyreactivity
QVQLVESGGGLVQAGGSLRLSCAASGSTFSDYVMGWYRQAPGKEREFVDAISWTGGITYYADSVKGRFTISRDNAKNTVYLQMNSLKPEDTAVYYSAAKRKYYGNGYWGQGTQVTVSS | high polyreactivity
QVQLVESGGGLVQAGGSLRLSCAASGSTFSEKAMGWYRQAPGKERELVAAISRRGGSTYYADSVKGRFTISRDNAKNTVYYQMNSLKPEDTAVYYCNVVNSGSFDYDYWGQGTPVTVSS | high polyreactivity
QVQLVESGGGLVQAGGSLRLSCAASGSTFSEYVMGWYRQAPGKQRELVAAIRSNGGSTYYADSVKGRFTISRDNAKNTVYLQMNSLKPEDTAVYYCNRVYSRRTYNSPLYDYWGQGTQVTVSS | high polyreactivity
QVQLVESGGGLVQAGGSLRLSCAASGSTFSFNDMGGYRPAPGKERELVADISWSGDTTYADSVKGRFTISRDNAKNTVYLQMNSLIPEDSAVYYCNAEGFSISFYGNWVVQWEFDYWGQGTQVTVSS | high polyreactivity
QVQLVESGGGLVQAGGSLRLSCAASGSTFSGNAMGWYRQAPGKEREMVAAITSSRGSTYYADSVKGRFTISRDHAQNTVDLQLNSLKPEDTAVYYCNRYSGGRWYPEYYYWGQGTQVTVSS | high polyreactivity
QVQLVESGGGLVQAGGSLRLSCAASGSTFSGNTMGWYRQAPGKERELVADINWSSGSTYYADSVKGRFTISRDNAKNTVYLQMNSLKPEDTAVYYCAAVEPFYDFDYWGQGTQVTVSS | low polyreactivity
QVQLVESGGGLVQAGGSLRLSCAASGSTFSGYAMGWYRQAPGKEMEFVATISISGGSTYYADSVKGRFTISRDNAKNTVYLQMNSLKPEDTAVYYCNADYYFSWGSIEDYWGQGTQVTVSS | low polyreactivity
QVQLVESGGGLVQAGGSLRLSCAASGSTFSGYAMGWYRQAPGKERELVAAISRRGTSTYYADSVKGRFTISRDNAKNTVYLQMNSLKPEDTAVYYCAARPSGYVIGGYGYWGQGTQVTVSS | high polyreactivity
